# Target: T1, HLA-A*02:01 (human)
# T1 construct: Peptide-receptive MHC class I monomer in the UV-ligand exchange assay
# Assay: UV peptide exchange, anti-b2m ELISA; exchange yield grade
# Description: (§1) Candidate peptides for T cell based therapies according to the present invention were further tested for their MHC binding capacity (affinity). The individual peptide-MHC complexes were produced by UV-ligand exchange, where a UV-sensitive peptide is cleaved upon UV-irradiation and exchanged with the peptide of interest as analyzed. Only peptide candidates that can effectively bind and stabilize the peptide-receptive MHC molecules prevent dissociation of the MHC complexes. To determine the yield of the exchange reaction, an ELISA was performed based on the detection of the light chain (β2m) of stabilized MHC complexes. The assay was performed as generally described in Rodenko et al. (Rodenko et al., 2006).
# (§2) 96 well MAXISorp plates (NUNC) were coated over night with 2 μg/ml streptavidin in PBS at room temperature, washed 4× and blocked for 1 h at 37° C. in 2% BSA containing blocking buffer. […] Peptide-MHC monomers of the UV-exchange reaction were diluted 100-fold in blocking buffer. Samples were incubated for 1 h at 37° C., washed four times, incubated with 2 μg/ml HRP conjugated anti-β2m for 1 h at 37° C., washed again and detected with TMB solution that is stopped with […]. Absorption was measured at 450 nm.
row,Binder,peptide exchange yield
1,IQAPALLKV,≥ 75%
2,LLGVVSHSV,≥ 75%
3,ILMILQPQL,≥ 75%
4,RLQEGLAAL,≥ 75%
5,SLSKLVATV,≥ 75%
6,SLKSSILFL,50 to 75%
7,LLSRGILIL,≥ 75%
8,SLFPISLTV,≥ 75%
9,IIIDRILLL,≥ 75%
10,TLNVLITL,20 to 50%
11,VLQSLQHEL,≥ 75%
12,ALIVLHLSL,20 to 50%
13,FLLLEKGGEL,≥ 75%
14,LVFESVVAA,≥ 75%
15,GLLDAFLRL,≥ 75%
16,SLQESLPNA,50 to 75%
17,ALGPMAFRV,≥ 75%
18,RLLRLIPIL,≥ 75%
19,ILVTAWKGV,50 to 75%
20,ITPDSIPSV,50 to 75%
21,YMLEMDNSMKI,≥ 75%
22,HLFSVLSAI,≥ 75%
23,ALNLSRLTV,≥ 75%
24,FALGPIIKQL,50 to 75%
25,LLDSWNILI,≥ 75%
26,KLPFFTNFL,≥ 75%
27,GLLGTLRVL,≥ 75%

# Target: T2, HLA-B*07:02 (human)
# T2 construct: Peptide-receptive monomer in the UV-ligand exchange assay
# Assay: as above
# Description: as §1, §2
row,Binder,peptide exchange yield
1,IPLHFSTAF,≥ 75%
2,RAPLPLLLL,50 to 75%
3,LPALLRSL,≥ 75%
4,YVGPTRLEL,≥ 75%
5,ASRIQVILL,50 to 75%
6,RPSPVRVAAL,≥ 75%
7,TPLTRTTL,50 to 75%

# Target: HLA-B*44:05 (human)
# Assay: as above
# Description: as §1, §2
row,Binder,binding result
1,METADRPEW,binds
2,TEIGTVIKLF,binds
3,AETKQFWSA,binds
4,SQAKQITIW,binds
5,KEIEAQEAA,binds
6,RELGVGIAL,binds
7,TEMSVSALY,binds
8,REQLDGATL,binds
9,KEFAFLEHSL,binds

# Target: T3, HLA-A*24:02 (human)
# T3 construct: Peptide-receptive MHC class I monomer in the UV-ligand exchange assay
# Assay: allele assigned to HLA ligand eluted from tissue (IP, LC-MS)
row,Binder,binding result
1,LWEEKPVCL,binds
2,IYLTKSNLVNM,binds
3,TYLESSVRI,binds
4,LYDTVTHTF,binds
5,LYLETRSEF,binds
6,KFPPSASEF,binds
7,ILAPPQRISF,binds
8,FQLSGPVTF,binds
9,NFHTLAQQLLF,binds
10,EYLGSENVF,binds
11,LWALAIPSL,binds
12,SHSSPTVSF,binds
13,FYNPRPPLI,binds
14,IFTGRNAYF,binds
15,SYLKDHLSL,binds
16,QYLTYYPSF,binds
17,VFVISGSHLF,binds
18,SQIKSPVVF,binds
19,IWRALGSLF,binds
20,VLYPSHSSF,binds
21,AWNESSAWLL,binds
22,VWILQKVNLAF,binds
23,VYIASSFKI,binds
24,VFLLLPYPRF,binds

# — US20240358755A1 (IMMATICS BIOTECHNOLOGIES, published 2024)
